The data set deals with the molecule itself. The data set can be described thus: crystal structure.

B1: MSMEG_3380 (FDR-B family F420H2-dependent reductase), recombinant, for crystallography (enzyme)
chain: MVAVPEGYESLLERPLYGHLATVRPDGTPQVNAMWFAWDGEVLRFTHTTKRQKYRNIKANPAVAMSVIDPDNPYRYLEVRGLVEDIVPDPTGAFYLKLNDRYDGPLTEPPADKADRVIIVVRPTAFSKQ
modifications: seleno-methionine labelled
Regarding B1, the binding result is “binds”.

(Values after article PMC3034190 (Molecular Microbiology, 2010).)
